This note sets out measurements from patent publication US20260274979A1 (Genmab, published 2026).

Values joined by “and” are separate entries in the source; they are usually repeats but may differ in a detail not shown here. Equal entries are not always repeated.

Assay [1] has as its target T1, human PD-1, full-length, expressed on cells (human, UniProt Q15116 25-288).
T1 construct: whole, on cells; also called programmed cell death protein 1; membrane-expressed human PD-1
Description: flow cytometry: 1 µg/mL biotinylated recombinant human PD-L2 on CHO-S cells transiently transfected with human PD-1; streptavidin-allophycocyanin; % of cells binding PD-L2. (In general: In flow cytometry, cells or beads pass a laser one at a time.)

For assay [2], the target named is complement protein C1q (from human serum) (human, UniProt P02745 23-245; P02746 28-253; P02747 29-245). Description: flow cytometry: C1q from human serum on activated human CD8+ T cells pre-incubated with antibody, FITC anti-C1q.
Assay [3] deals with T1, human PD-1, full-length, expressed on …. Description: cell-based or functional assay.
Assay [4] shares this target. Description: competition flow cytometry: antibody titrated against 1 µg/mL biotinylated recombinant human PD-L2 on CHO-S cells transiently transfected with human PD-1; streptavidin-allophycocyanin; % of cells binding PD-L2.
Assay [5] has the same target. The assay is described as follows: cell-based or functional assay. The source holds these as a separate data set.

T1 sequence (Q15116 25-288): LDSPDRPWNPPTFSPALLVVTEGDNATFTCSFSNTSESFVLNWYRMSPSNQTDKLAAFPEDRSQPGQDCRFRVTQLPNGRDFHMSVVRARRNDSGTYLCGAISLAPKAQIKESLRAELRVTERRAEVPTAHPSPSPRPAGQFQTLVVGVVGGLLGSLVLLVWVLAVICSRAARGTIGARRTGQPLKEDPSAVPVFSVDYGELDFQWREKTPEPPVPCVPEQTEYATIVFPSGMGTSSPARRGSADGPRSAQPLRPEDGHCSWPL
Sequence of complement protein C1q (from human serum) (P02745 23-245, chain 1 of 3): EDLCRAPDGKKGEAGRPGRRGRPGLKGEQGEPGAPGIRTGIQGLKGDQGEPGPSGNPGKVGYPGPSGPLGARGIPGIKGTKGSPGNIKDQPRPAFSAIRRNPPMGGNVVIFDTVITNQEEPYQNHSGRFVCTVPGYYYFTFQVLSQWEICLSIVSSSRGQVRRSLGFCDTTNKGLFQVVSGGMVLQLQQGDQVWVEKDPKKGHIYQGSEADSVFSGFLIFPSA
Sequence of complement protein C1q (from human serum) (P02746 28-253, chain 2 of 3): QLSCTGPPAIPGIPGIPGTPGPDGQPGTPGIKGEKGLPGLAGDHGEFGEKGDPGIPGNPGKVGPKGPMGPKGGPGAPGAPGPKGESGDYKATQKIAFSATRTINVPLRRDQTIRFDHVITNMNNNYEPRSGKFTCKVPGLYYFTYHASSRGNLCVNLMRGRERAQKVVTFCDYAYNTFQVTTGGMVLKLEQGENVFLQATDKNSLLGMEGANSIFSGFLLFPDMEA
Sequence of complement protein C1q (from human serum) (P02747 29-245, chain 3 of 3): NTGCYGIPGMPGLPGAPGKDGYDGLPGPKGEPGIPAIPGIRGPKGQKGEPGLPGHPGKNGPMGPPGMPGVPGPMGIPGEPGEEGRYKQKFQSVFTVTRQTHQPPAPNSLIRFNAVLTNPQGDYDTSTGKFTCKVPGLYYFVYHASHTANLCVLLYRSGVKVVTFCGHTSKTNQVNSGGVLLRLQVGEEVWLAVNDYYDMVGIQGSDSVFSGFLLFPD

B1: biotinylated recombinant human PD-L2 (ligand, UniProt Q9BQ51 20-219, looked up)
chain: LFTVTVPKELYIIEHGSNVTLECNFDTGSHVNLGAITASLQKVENDTSPHRERATLLEEQLPLGKASFHIPQVQVRDEGQYQCIIIYGVAWDYKYLTLKVKASYRKINTHILKVPETDEVELTCQATGYPLAEVSWPNVSVPANTSHSRTPEGLYQVTSVLRLKPPPGRNFSCVFWNTHVRELTLASIDLQSQMEPRTHP
modifications: biotinylated
notes: Bought reagent; also called programmed cell death 1 ligand 2
Turning to B1, in assay [1], the binding result is listed as “binds”.

B2: IgG1-PD1 (antibody)
heavy: QVQLVESGGGLVQPGTSLRLSCSVSGFSLYSYNMGWVRQAPGKGLEYIGIISGGTIGHYASWAKGRFTISRDTSKTTLYLQMNSLTTEDTATYFCARAFYDDYDYNVWGPGTLVTVSSASTKGPSVFPLAPSSKSTSGGTAALGCLVKDYFPEPVTVSWNSGALTSGVHTFPAVLQSSGLYSLSSVVTVPSSSLGTQTYICNVNHKPSNTKVDKRVEPKSCDKTHTCPPCPAPEFERGPSVFLFPPKPKDTLMISRTPEVTCVVVDVSHEDPEVKFNWYVDGVEVHNAKTKPREEQYNSTYRVVSVLTVLHQDWLNGKEYKCKVSNKALPAPIEKTISKAKGQPREPQVYTLPPSREEMTKNQVSLTCLVKGFYPSDIAVEWESNGQPENNYKTTPPVLDSDGSFFLYSKLTVDKSRWQQGNVFSCSVMHEALHNHYTQKSLSLSPG
light: AIQLTQSPSSLSASVGGTVTITCQSSQSVYGNNQLSWYQQKPGQPPKLLIYQASKLETGVPSRFRGSGSGTQFTLTISSLQSEDFATYYCAGGYSSSSDTTFGGGTEVVVKRTVAAPSVFIFPPSDEQLKSGTASVVCLLNNFYPREAKVQWKVDNALQSGNSQESVTEQDSKDSTYSLSSTLTLSKADYEKHKVYACEVTHQGLSSPVTKSFNRGEC
notes: also called IgG1-PDI; copies: 2 + 2
Turning to B2, in assay [2], the binding result is listed as “no binding (tested: antibody up to 30 µg/mL; 20% human serum)”. Further, the “EC50 of PD-1/PD-L1 checkpoint blockade (luminescence, cell-based PD-1/PD-L1 blockade reporter assay)” value in assay [3] was 0.165 µg/mL and 1.12 nM. For the same molecule, the “IC50 (read off the curve)” value in assay [4] was ~0.9 µg/mL. The “Average EC50, CD8+ T-cell expansion index in the antigen-specific proliferation assay” value in assay [5] is 0.0124 µg/mL and 0.0837 nM.
